Source: patent US12319931B2, “Oncolytic virus expressing interferon and application therefor” (SHANGHAI YUANSONG BIOTECHNOLOGY CO. LTD., priority 2018, dated 2025)

System: HCC1806 xenograft tumor
Test: HCC1806 xenograft tumor model in nude mice
Format: in vivo
Details: virus intratumoral 1.5×10^10 VP/time/mouse, rIFN intraperitoneal 20 μg/time/mouse, 5 times
Procedure: When the experimental nude mice reached 5 weeks old, they were injected with 2×10^6 HCC1806 tumor cells for tumor formation. […] The tumor size was observed and measured every 3 days after administration of oncolytic virus.
Specifically, the triple negative breast cancer cell line HCC1806 xenograft tumor of nude mice with less immune cell infiltration were used for in vivo drug efficacy testing. […] The tumor size was measured every three days.

B1: recombinant interferon protein: consensus interferon rIFN protein; synthetic interferon with roughly the average sequence of human interferon-α subtypes (protein)
chain 1: MALSFSLLMAVLVLSYKSICSLGMCDLPQTHSLGNRRALILLAQMRRISPFSCLKDRHDFGFPQEEFDGNQFQKAQAISVLHEMIQQTFNLFSTKDSSAAWDESLLEKFYTELYQQLNDLEACVIQEVGVEETPLMNVDSILAVKKYFQRITLYLTEKKYSPCAWEVVRAEIMRSFSLSTNLQERLRRKE
chain 2: MALSFSLLMAVLVLSYKSICSLGMCDLPQTHSLGNRRALILLAQMRRISPFSCLKDRHDFGFPQEEFDGNQFQKAQAISVLHEMIQQTFNLFSTKDSSAAWDESLLEKFYTELYQQLNDLEACVIQEVGVEETPLMNVDSILAVKKYFQRITLYLTEKKYSPCAWEVVRAEIMRSFSLSTNLQERLRRKE
chain 3: MALSFSLLMAVLVLSYKSICSLGMCDLPQTHSLGNRRALILLAQMRRISPFSCLKDRHDFGFPQEEFDGNQFQKAQAISVLHEMIQQTFNLFSTKDSSAAWDESLLEKFYTELYQQLNDLEACVIQEVGVEETPLMNVDSILAVKKYFQRITLYLTEKKYSPCAWEVVRAEIMRSFSLSTNLQERLRRKE
modifications: consensus interferon coding sequence IFN-1; consensus interferon coding sequence IFN-2; consensus interferon coding sequence IFN-3
tumor-suppressive effect: no obvious tumor-suppressive effect
